Results published in patent US20230056099 (published 2023).

B1: TBCA (ssDNA)
DNA: ATCTCGACTAGTCATAGGGGGCGCGAACATACGCGGTTGGTGTGGTTGGCTGACAATACTCGTTTTTGGTGTCTCGGAT
modifications: circular (5' and 3' ends joined)
B2: D1 (ssDNA)
DNA: ATCTCGACTAGTCATAGGGGGCGCGAACATACGCGGTTGGTGTGGTTGGCTGACAATACTCGTGTCTCGGAT
modifications: circular (5' and 3' ends joined)
B3: D2 (ssDNA)
DNA: ATCTCGACTAGTCATAGGGGGCGCGAACATACGCGGTTGGTGTGGTTGGCTGACAATACTCGT
modifications: circular (5' and 3' ends joined)
B4: D3 (ssDNA)
DNA: ATCTCGACTAGTCATAGGGGGCGCGAACATACGCGGTTGGTGTGGTTGGCTGACAA
modifications: circular (5' and 3' ends joined)
B5: TBA (ssDNA)
DNA: GGTTGGTGTGGTTGG

Target: thrombin (human alpha-thrombin) (UniProt P00734;P00734 P00734:328-363,P00734:364-622)
Experiment: inhibition; 0.1 nM thrombin, 2 uM fibrinogen, absorbance 350 nm

Binder	IC50 [nM]
B1	0.15
B2	0.15
B3	0.09
B4	0.13
B5	1.3
